Source: article PMC5764413 (PLoS Neglected Tropical Diseases, 2017)

Target: the molecule itself
Assay: cross-linking

Row | Protein | binding result
1 | RVFV MP12 N protein delN1-14, N-terminal 6His-tag (p14-N) (domain or fragment) AVDRNEIEQWVREFAYQGFDARRVIELLKQYGGADWEKDAKKMIVLALTRGNKPRRMMMKMSKEGKATVEALINKYKLKEGNPSRDELTLSRVAAALAGWTCQALVVLSEWLPVTGTTMDGLSPAYPRHMMHPSFAGMVDPSLPGDYLRAILDAHSLYLLQFSRVINPNLRGRTKEEVAATFTQPMNAAVNSNFISHEKRREFLKAFGLVDSNGKPSAAVMAAAQAYKTAA | binds
2 | RVFV MP12 nucleocapsid protein (N), wild type, N-terminal 6His-tag (p14-N) (natural protein) MDNYQELRVQFAAQAVDRNEIEQWVREFAYQGFDARRVIELLKQYGGADWEKDAKKMIVLALTRGNKPRRMMMKMSKEGKATVEALINKYKLKEGNPSRDELTLSRVAAALAGWTCQALVVLSEWLPVTGTTMDGLSPAYPRHMMHPSFAGMVDPSLPGDYLRAILDAHSLYLLQFSRVINPNLRGRTKEEVAATFTQPMNAAVNSNFISHEKRREFLKAFGLVDSNGKPSAAVMAAAQAYKTAA | binds
